Results on 4 molecules are retold here after article PMC7725785 (2020).

Like-named read-outs stand apart in the source and are kept apart here. Where no end group is shown, it is not given here. [ ]: non-standard residue; d: D form.

Broadly, the Kd is a measure of binding affinity in units of concentration. Low readings indicate tighter binding, high ones weaker binding. The koff is the first-order rate constant of dissociation. Higher therefore signals fast dissociation.

What all share (assay): SPR
In general terms: SPR reads the build-up and loss of mass on a sensor chip optically.

Assay [1] deals with T1, GST-tagged TRIB3 (human, UniProt Q96RU7 1-358).
T1 chain: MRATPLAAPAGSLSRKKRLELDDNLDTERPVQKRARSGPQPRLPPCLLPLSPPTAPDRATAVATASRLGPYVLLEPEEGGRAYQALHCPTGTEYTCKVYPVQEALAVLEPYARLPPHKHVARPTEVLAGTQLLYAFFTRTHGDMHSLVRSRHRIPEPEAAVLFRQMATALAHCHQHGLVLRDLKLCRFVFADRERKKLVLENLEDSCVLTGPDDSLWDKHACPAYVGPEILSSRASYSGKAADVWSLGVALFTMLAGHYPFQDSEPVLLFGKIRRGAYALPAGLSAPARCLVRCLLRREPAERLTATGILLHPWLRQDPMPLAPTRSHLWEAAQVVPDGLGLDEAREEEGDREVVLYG

Assay [2] deals with T1, GST-tagged TRIB3.
In assay [3] the target is T1, GST-tagged TRIB3.
Assay [4] concerns the target T2, MAX protein (SPR) (human, UniProt P61244 1-160).
The target in assay [5] is T2, MAX protein (SPR). This is another data set of the same source.

T2 sequence (P61244 whole entry): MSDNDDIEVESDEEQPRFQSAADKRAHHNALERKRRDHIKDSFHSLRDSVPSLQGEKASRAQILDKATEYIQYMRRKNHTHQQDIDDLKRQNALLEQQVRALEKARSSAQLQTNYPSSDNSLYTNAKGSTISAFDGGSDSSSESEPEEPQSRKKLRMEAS

[dK][dV][dV][dI][dL][dK][dK][dA][dT][dA][dY][dI][dL][dS][dV] [CM2 peptide] came in with a Kd in the assay with GST-tagged TRIB3 [1] of 8.17 µM. This molecule also gave a koff with GST-tagged TRIB3 [2] of 0.0166 s⁻¹.
With [dK][dR][dR][dE][dQ][dL][dK][dH][dK][dL][dE][dQ][dL][dR] [CM4 peptide], the values for the koff with GST-tagged TRIB3 [3] and in the assay with MAX protein (SPR) [5] were 0.0769 s⁻¹ and 0.0417 s⁻¹, respectively. In the assay with MAX protein (SPR) [4], this molecule registered a Kd of 12.8 µM.
[dQ][dA][dE][dE][dQ][dK][dL][dI][dS][dE][dE][dD][dL][dL][dR] [CM3 peptide] registered a Kd with GST-tagged TRIB3 [1] of 0.707 µM. Besides, in the assay with GST-tagged TRIB3 [2], the koff stood at 0.000434 s⁻¹.
On to [dE][dR][dQ][dR][dR][dN][dE][dL][dK][dR][dS][dF][dF][dA][dL][dR] [CM1 peptide], for which the values for the Kd with MAX protein (SPR) [4] and with GST-tagged TRIB3 [1] were 0.897 µM and 3.4 µM, respectively. Moreover, the values for the koff with MAX protein (SPR) [5] and with GST-tagged TRIB3 [2] were 0.0099 s⁻¹ and 0.00531 s⁻¹, respectively.
